Paper PMC12636033, “Chemical Engineering of Transcription Factors Uncovered Cell-Permeable μMax Modulators”

B1: dBr_Jan07_23467 (dsDNA)
DNA 1: ATTGGGGATGACAAGAGCTCTTCACAAAGAGGCCTTGTCTGTGTTCCGTTGTCCGTGCTG
DNA 2: CAGCACGGACAACGGAACACAGACAAGGCCTCTTTGTGAAGAGCTCTTGTCATCCCCAAT
B2: dBr_Jan07_04854 (dsDNA)
DNA 1: CTGGGTTGGCCCTGCATTGGATACCTTTGAGCTCTCGTCTGTGTTCCGTTGTCCGTGCTG
DNA 2: CAGCACGGACAACGGAACACAGACGAGAGCTCAAAGGTATCCAATGCAGGGCCAACCCAG
B3: dBr_Jan07_34487 (dsDNA)
DNA 1: AACAGCCCACCCCTTATCAACGCGGCGCTTTCAGGCGTCTGTGTTCCGTTGTCCGTGCTG
DNA 2: CAGCACGGACAACGGAACACAGACGCCTGAAAGCGCCGCGTTGATAAGGGGTGGGCTGTT
B4: dBr_Jan07_06649 (dsDNA)
DNA 1: TAAAGGTCACCAATAGTCATTGCAGACTGGGACAATGTCTGTGTTCCGTTGTCCGTGCTG
DNA 2: CAGCACGGACAACGGAACACAGACATTGTCCCAGTCTGCAATGACTATTGGTGACCTTTA
B5: dBr_Jan07_22296 (dsDNA)
DNA 1: TGAAGTGATTGTATGACCTTCTCCACTCTGCCGCCAGTCTGTGTTCCGTTGTCCGTGCTG
DNA 2: CAGCACGGACAACGGAACACAGACTGGCGGCAGAGTGGAGAAGGTCATACAATCACTTCA
B6: dBr_Jan07_04404 (dsDNA)
DNA 1: ATCCTCTTGAAACACTACAAGTTTCGTTAAAAAAAGGTCTGTGTTCCGTTGTCCGTGCTG
DNA 2: CAGCACGGACAACGGAACACAGACCTTTTTTTAACGAAACTTGTAGTGTTTCAAGAGGAT
B7: dBr_Jan07_06986 (dsDNA)
DNA 1: CAATAGACGTTGCAATTTGGCCTGACAGCTACGGAAGTCTGTGTTCCGTTGTCCGTGCTG
DNA 2: CAGCACGGACAACGGAACACAGACTTCCGTAGCTGTCAGGCCAAATTGCAACGTCTATTG
B8: dBr_Jan07_41473 (dsDNA)
DNA 1: TACTCGAAGCGTAAAAAAGACCGGGTAGGAAGCCAAGTCTGTGTTCCGTTGTCCGTGCTG
DNA 2: CAGCACGGACAACGGAACACAGACTTGGCTTCCTACCCGGTCTTTTTTACGCTTCGAGTA
B9: dBr_Jan07_40846 (dsDNA)
DNA 1: CCAGATCAACGCTTGCTAAATAAACGCAGCAAACTGGTCTGTGTTCCGTTGTCCGTGCTG
DNA 2: CAGCACGGACAACGGAACACAGACCAGTTTGCTGCGTTTATTTAGCAAGCGTTGATCTGG
B10: dBr_Jan07_30747 (dsDNA)
DNA 1: GGTACTACGATATAGGGATTACGCACCGCAAGGAGCGTCTGTGTTCCGTTGTCCGTGCTG
DNA 2: CAGCACGGACAACGGAACACAGACGCTCCTTGCGGTGCGTAATCCCTATATCGTAGTACC
B11: dBr_Jan07_28572 (dsDNA)
DNA 1: CGCTTTGCTCAGACGTCTGACTCGGACTATGAGAGGGTCTGTGTTCCGTTGTCCGTGCTG
DNA 2: CAGCACGGACAACGGAACACAGACCCTCTCATAGTCCGAGTCAGACGTCTGAGCAAAGCG
B12: dBr_Jan07_39257 (dsDNA)
DNA 1: CAAACAGGCCGGTCTCTCGGTACAGTCACGTGTTCAGTCTGTGTTCCGTTGTCCGTGCTG
DNA 2: CAGCACGGACAACGGAACACAGACTGAACACGTGACTGTACCGAGAGACCGGCCTGTTTG
B13: dBr_Jan07_16988 (dsDNA)
DNA 1: CCACCTAGGGGATACTCGCAAGGTCGGGAAACCACCGTCTGTGTTCCGTTGTCCGTGCTG
DNA 2: CAGCACGGACAACGGAACACAGACGGTGGTTTCCCGACCTTGCGAGTATCCCCTAGGTGG
B14: dBr_Jan07_19002 (dsDNA)
DNA 1: CTATGCCGGGATAGTTCACCATACGGTCACAGCTTTGTCTGTGTTCCGTTGTCCGTGCTG
DNA 2: CAGCACGGACAACGGAACACAGACAAAGCTGTGACCGTATGGTGAACTATCCCGGCATAG
B15: dBr_Jan07_08177 (dsDNA)
DNA 1: GGAGGTCTAACTGGGAACGGCAATGCGCCCATATTTGTCTGTGTTCCGTTGTCCGTGCTG
DNA 2: CAGCACGGACAACGGAACACAGACAAATATGGGCGCATTGCCGTTCCCAGTTAGACCTCC
B16: dBr_Jan07_08379 (dsDNA)
DNA 1: CGCGGAAGCCTCTACGCTTGATTGTATCCAACACCCGTCTGTGTTCCGTTGTCCGTGCTG
DNA 2: CAGCACGGACAACGGAACACAGACGGGTGTTGGATACAATCAAGCGTAGAGGCTTCCGCG
B17: dBr_Jan07_19753 (dsDNA)
DNA 1: ACACGTGTATGTAACATGCGAGCACTTCGTGCGCCTGTCTGTGTTCCGTTGTCCGTGCTG
DNA 2: CAGCACGGACAACGGAACACAGACAGGCGCACGAAGTGCTCGCATGTTACATACACGTGT
B18: dBr_Jan07_41703 (dsDNA)
DNA 1: CATTCATGTTGAGATAACACGTGGTTGGGCGTTAATGTCTGTGTTCCGTTGTCCGTGCTG
DNA 2: CAGCACGGACAACGGAACACAGACATTAACGCCCAACCACGTGTTATCTCAACATGAATG
B19: dBr_Jan07_10250 (dsDNA)
DNA 1: CCGCTCCACGAGCCACGACCGAATACCGTACACGTGGTCTGTGTTCCGTTGTCCGTGCTG
DNA 2: CAGCACGGACAACGGAACACAGACCACGTGTACGGTATTCGGTCGTGGCTCGTGGAGCGG
B20: dBr_Jan07_08887 (dsDNA)
DNA 1: ATAGCCGCGTGGCATATGGTCCGGCGACCCCCTCTCGTCTGTGTTCCGTTGTCCGTGCTG
DNA 2: CAGCACGGACAACGGAACACAGACGAGAGGGGGTCGCCGGACCATATGCCACGCGGCTAT
B21: dBr_Jan07_34312 (dsDNA)
DNA 1: TTCAGACTGGCGCATGGTGCCCTCTGAACCCTGAATGTCTGTGTTCCGTTGTCCGTGCTG
DNA 2: CAGCACGGACAACGGAACACAGACATTCAGGGTTCAGAGGGCACCATGCGCCAGTCTGAA
B22: dBr_Jan07_20880 (dsDNA)
DNA 1: GTCGGTTAACCTACTGTAACGTCGCTTTCGGTGTGTGTCTGTGTTCCGTTGTCCGTGCTG
DNA 2: CAGCACGGACAACGGAACACAGACACACACCGAAAGCGACGTTACAGTAGGTTAACCGAC
B23: dBr_Jan07_17054 (dsDNA)
DNA 1: GTTCTCCCTTGATTCAAGTATAACAAGATACCCATCGTCTGTGTTCCGTTGTCCGTGCTG
DNA 2: CAGCACGGACAACGGAACACAGACGATGGGTATCTTGTTATACTTGAATCAAGGGAGAAC
B24: dBr_Jan07_16045 (dsDNA)
DNA 1: TACATATTGCCCTTTGGGTGAGTCACTCATTTTGGGGTCTGTGTTCCGTTGTCCGTGCTG
DNA 2: CAGCACGGACAACGGAACACAGACCCCAAAATGAGTGACTCACCCAAAGGGCAATATGTA

Target: WT Max (Homo sapiens, UniProt P61244-2 13-93, M65Nle, norleucine written as M; other non-natural residues written as X)
Sequence (P61244 other isoform, or with tags, fused parts or gaps M65Nle): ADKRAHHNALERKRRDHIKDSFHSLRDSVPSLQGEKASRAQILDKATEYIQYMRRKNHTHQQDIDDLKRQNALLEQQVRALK
Test: PBM; 50-200 nM protein; PBS, 2% milk, BSA, salmon testes DNA, 0.02% Triton X-100
Details: chain copies: 2; label: surface-attached array probe

Binder | binding signal
B1 | -0.43 robust z of log adjusted intensity (ours), mean of two arrays
B2 | -0.33 robust z of log adjusted intensity (ours), mean of two arrays
B3 | -0.28 robust z of log adjusted intensity (ours), mean of two arrays
B4 | -0.27 robust z of log adjusted intensity (ours), mean of two arrays
B5 | -0.32 robust z of log adjusted intensity (ours), mean of two arrays
B6 | -0.11 robust z of log adjusted intensity (ours), mean of two arrays
B7 | -0.17 robust z of log adjusted intensity (ours), mean of two arrays
B8 | -0.29 robust z of log adjusted intensity (ours), mean of two arrays
B9 | -0.51 robust z of log adjusted intensity (ours), mean of two arrays
B10 | -0.4 robust z of log adjusted intensity (ours), mean of two arrays
B11 | -0.41 robust z of log adjusted intensity (ours), mean of two arrays
B12 | 4.93 robust z of log adjusted intensity (ours), mean of two arrays
B13 | -0.45 robust z of log adjusted intensity (ours), mean of two arrays
B14 | -0.39 robust z of log adjusted intensity (ours), mean of two arrays
B15 | -0.41 robust z of log adjusted intensity (ours), mean of two arrays
B16 | -0.26 robust z of log adjusted intensity (ours), mean of two arrays
B17 | 3.43 robust z of log adjusted intensity (ours), mean of two arrays
B18 | 5.69 robust z of log adjusted intensity (ours), mean of two arrays
B19 | 4.92 robust z of log adjusted intensity (ours), mean of two arrays
B20 | 7 robust z of log adjusted intensity (ours), mean of two arrays
B21 | -0.02 robust z of log adjusted intensity (ours), mean of two arrays
B22 | -0.14 robust z of log adjusted intensity (ours), mean of two arrays
B23 | -0.28 robust z of log adjusted intensity (ours), mean of two arrays
B24 | -0.17 robust z of log adjusted intensity (ours), mean of two arrays
